Test results taken from publication PMC5584141 (The Journal of Cell Biology, 2017).
Where a chain is given by its changes, count along the chain named.

B1: GPC6ΔGAG-AP fusion protein (natural protein)
chain: DVKARSCSEVRQAYGAKGFSLADIPYQEIAGEHLRICPQEYTCCTTEMEDKLSQQSKLEFENLVEETSHFVRTTFVSRHKKFDEFFRELLENAEKSLNDMFVRTYGMLYMQNSEVFQDLFTELKRYYTGGNVNLEEMLNDFWARLLERMFQLINPQYHFSEDYLECVSKYTDQLKPFGDVPRKLKIQVTRAFIAARTFVQGLTVGREVANRVSKVSPTPGCIRALMKMLYCPYCRGLPTVRPCNNYCLNVMKGCLANQADLDTEWNLFIDAMLLVAERLEGPFNIESVMDPIDVKISEAIMNMQENSMQVSAKVFQGCGQPKPAPALRSARSAPENFNTRFRPYNPEERPTTAAGTSLDRLVTDIKEKLKLSKKVWSALPYTICKDERVTAGTSNEEECWNGHSKARYLPEIMNDGLTNQINNPEVEVDITRPDTFIRQQIMALRVMTNKLKNAYNGNDVNFQDTSDESAGAGAGAGCMDDVCPTEFEFVTTEAPAVDPDRREEESS
modifications: biotinylated with EZ-link Sulfo-NHS-LC biotin for SPR
B2: recombinant Ihh (ligand)
chain: not shown

Key:
Test in all cases: SPR
[1] = target: recombinant Shh (UniProt Q62226 25-198)
recombinant Shh, sequence (Q62226 25-198): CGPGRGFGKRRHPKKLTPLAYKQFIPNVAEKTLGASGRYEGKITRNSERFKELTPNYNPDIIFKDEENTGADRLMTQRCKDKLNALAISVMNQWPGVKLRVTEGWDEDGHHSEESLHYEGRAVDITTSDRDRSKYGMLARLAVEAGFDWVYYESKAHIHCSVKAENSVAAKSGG

[2] = target: B2
[3] = target: T1, GPC6-AP fusion protein (UniProt Q9R087 24-530, carries glycosaminoglycan (GAG) chains; biotinylated with EZ-link Sulfo-NHS-LC biotin for SPR)
T1 sequence: B1 chain with A470S, A472S, A474S, A476S

Row | Binder | Kd [1] | Kd [2] | Kd [3]
1 | B1 | 21 nM | 16 nM | –
2 | B2 | – | – | 14 nM
